Experimental data reported in IntAct's records for PubMed 16374512.

B1: Retinoblastoma-associated protein (Homo sapiens), P06400 (parent)
chain: MPPKTPRKTAATAAAAAAEPPAPPPPPPPEEDPEQDSGPEDLPLVRLEFEETEEPDFTALCQKLKIPDHVRERAWLTWEKVSSVDGVLGGYIQKKKELWGICIFIAAVDLDEMSFTFTELQKNIEISVHKFFNLLKEIDTSTKVDNAMSRLLKKYDVLFALFSKLERTCELIYLTQPSSSISTEINSALVLKVSWITFLLAKGEVLQMEDDLVISFQLMLCVLDYFIKLSPPMLLKEPYKTAVIPINGSPRTPRRGQNRSARIAKQLENDTRIIEVLCKEHECNIDEVKNVYFKNFIPFMNSLGLVTSNGLPEVENLSKRYEEIYLKNKDLDARLFLDHDKTLQTDSIDSFETQRTPRKSNLDEEVNVIPPHTPVRTVMNTIQQLMMILNSASDQPSENLISYFNNCTVNPKESILKRVKDIGYIFKEKFAKAVGQGCVEIGSQRYKLGVRLYYRVMESMLKSEEERLSIQNFSKLLNDNIFHMSLLACALEVVMATYSRSTSQNLDSGTDLSFPWILNVLNLKAFDFYKVIESFIKAEGNLTREMIKHLERCEHRIMESLAWLSDSPLFDLIKQSKDREGPTDHLESACPLNLPLQNNHTAADMYLSPVRSPKKKGSTTRVNSTANAETQATSAFQTQKPLKSTSLSLFYKKVYRLAYLRLNTLCERLLSEHPELEHIIWTLFQHTLQNEYELMRDRHLDQIMMCSMYGICKVKNIDLKFKIIVTAYKDLPHAVQETFKRVLIKEEEYDSIIVFYNSVFMQRLKTNILQYASTRPPTLSPIPHIPRSPYKFPSSPLRIPGGNIYISPLKSPYKISEGLPTPTKMTPRSRILVSIGESFGTSEKFQKINQMVCNSDRVLKRSAEGSNPPKPLKKLRFDIEGSDEADGSKHLPGESKFQQKLAEMTSTRTRMQKQKMNDSMDTSNKEEK

Assays:
[1] = variants of: B1; conditions: with e2f1_human E2F1, Q01094
[2] = variants of: B1; conditions: with e2f1_human E2F1, Q01094; remark: listed apart in the source

Chain of e2f1_human E2F1, Q01094 (Q01094 whole entry): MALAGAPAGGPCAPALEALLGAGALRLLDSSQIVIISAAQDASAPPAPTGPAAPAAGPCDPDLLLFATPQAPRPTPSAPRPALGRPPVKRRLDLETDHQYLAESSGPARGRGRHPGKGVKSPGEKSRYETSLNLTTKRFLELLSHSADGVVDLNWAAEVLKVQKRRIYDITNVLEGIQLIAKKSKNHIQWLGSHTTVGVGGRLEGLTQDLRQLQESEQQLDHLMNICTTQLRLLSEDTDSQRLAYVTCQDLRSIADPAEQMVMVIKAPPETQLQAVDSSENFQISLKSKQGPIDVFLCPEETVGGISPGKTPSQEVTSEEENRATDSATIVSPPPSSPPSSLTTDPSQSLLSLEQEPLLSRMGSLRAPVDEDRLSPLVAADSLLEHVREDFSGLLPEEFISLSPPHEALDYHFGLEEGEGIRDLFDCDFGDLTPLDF

effect of a mutation on the interaction [1]	effect of a mutation on the interaction [2]	Variant
disrupting interaction	decreasing interaction	K873Q
disrupting interaction	decreasing interaction	K874Q
